Results taken from US20250009856A1, “METHODS FOR TREATING RESPIRATORY DISEASES” (MUCPharm Pty Ltd, priority 2021, published 2025).

B1: DNASE: enzyme hydrolysing phosphodiester bonds of dsDNA; marketed under the brand name Pulmozyme for cystic fibrosis sputa (protein, UniProt P24855 23-282, looked up)
Deoxyribonuclease-1: LKIAAFNIQTFGETKMSNATLVSYIVQILSRYDIALVQEVRDSHLTAVGKLLDNLNQDAPDTYHYVVSEPLGRNSYKERYLFVYRPDQVSAVDSYYYDDGCEPCGNDTFNREPAIVRFFSRFTEVREFAIVPLHAAPGDAVAEIDALYDVYLDVQEKWGLEDVMLMGDFNAGCSYVRPSQWSSIRLWTSPTFQWLIPDSADTTATPTHCAYDRIVVAGMLLRGAVVPDSALPFNFQAAYGLSDQLAQAISDHYPVEVMLK

Legend:
[1] = test system: New Zealand white rabbits; assay: Pilot study: safety of inhaled bromelain in rabbits; conditions: rabbit, in vivo
Source text: In this pilot study. […] Ten minutes waiting period was kept between Salbutamol administration and treatment. Each rabbit received one cumulative dose of bromelain using a nebulizer and a v-gel supraglottal airway device as below. The pilot study was divided into 2 experiments as follows:
Experiment 1: Two rabbits were used in the first bromelain aerosol administration experiment. The first rabbit received an aerosol of physiological saline solution (0.9% NaCl), the second rabbit received aerosolized bromelain 0.1 mg/mL (accumulative dose of 0.19 mg in 1.9 mL saline), over 16 min inhalation period (Table 1).
Experiment 2: Three rabbits were used in the second bromelain aerosol administration experiment. The first rabbit received an aerosol of physiological saline solution (0.9% NaCl), the second one received aerosolized low dose of bromelain 0.01 mg/mL (accumulative dose of 0.025 mg bromelain in 2.5 mL saline), the third rabbit received aerosolized high dose of bromelain 0.1 mg/mL (accumulative dose of 0.25 mg bromelain in 2.5 mL saline), over 11 min inhalation period.
Rabbits were euthanized 48 h post-treatment using IV Sodium pentobarbitone 100 mg/kg while animals were sedated using isoflurane.

[2] = Dynamic viscosity after mixing with BromAc, DNase and combinations; conditions: for Dynamic viscosity (¥): heads: BR(25 ug/ml), NAC(20 mg/ml), BR(250 ug/ml) + NAC(20 ug/ml)
Experimental: (§1) Artificial sputa was prepared following methodology with ingredients as in earlier experiments. To 1.5 ml of artificial sputa in a vial was added 0.5 ml of reagent containing the required bromelain, NAC, DNase and their combinations. Control vials included 0.5 ml of PBS only. The mixture was vortex mixed and incubated in a shaker water bath at 37 deg C. At the end of 1 hour, the samples were retrieved, vortex mixed and equilibrated to ambient room temperature before measuring dynamic viscosity and pipette flow.
(§2) Dynamic viscosity was determined using the capillary tube method as in earlier experiments, whilst the pipette flow was evaluated using a 0.5 ml pipette inclined at 60 deg angle. The pipette flow was calculated as shown below.

[3] = Sputum flow speed after mixing with BromAc, DNase and combinations; conditions: BR 250 ug/ml, NAC 20 mg/ml where present, 1 hour, 37 deg C
Experimental: as §1, §2
Pipette flow (€)=0.45 ml sputa/time to empty (sec).

Molecule | activities, food and drink intake, breathing [1] | effect on dynamic viscosity compared with other treatment groups ([2]; DNase 2-20 μg/ml) | Dynamic viscosity (¥) ([2]; plus DNASE 2.0 ug/ml) | Dynamic viscosity (¥) ([2]; plus DNASE 4.0 ug/ml) | Dynamic viscosity (¥) ([2]; plus DNASE 6.0 ug/ml) | Dynamic viscosity (¥) ([2]; plus DNASE 8.0 ug/ml) | Dynamic viscosity (¥) ([2]; plus DNASE 20 ug/ml) | Dynamic viscosity (¥) ([2]; plus DNASE 10. ug/ml) | Sputum flow speed (€) ([3]; plus DNASE 2.0 ug/ml) | Sputum flow speed (€) ([3]; plus DNASE 4.0 ug/ml) | Sputum flow speed (€) ([3]; plus DNASE 6.0 ug/ml) | Sputum flow speed (€) ([3]; plus DNASE 8.0 ug/ml) | Sputum flow speed (€) ([3]; plus DNASE 20 ug/ml) | Sputum flow speed (€) ([3]; plus DNASE 10. ug/ml)
Bromelain | normal | – | – | – | – | – | – | – | – | – | – | – | – | –
B1 | – | less compared to all the other treatment groups | 1.64 cSt | 1.60 cSt | 1.57 cSt | 1.514 cSt | 1.379 cSt | 1.472 cSt | 0.0627 mL/s | 0.075 mL/s | 0.082 mL/s | 0.09 mL/s | 0.1125 mL/s | 0.1044 mL/s
